“Also recorded” adds a separate entry of the source. No end group written: not given here.
Tests used:
Type in all cases: cell-based, Human
MCF7 cells [1] = assay: Internalization and intracellular distribution of FITC-labeled peptides, confocal microscopy; conditions: MCF7, FITC-labeled peptides 30 μM, 30 min, washed three times with PBS, Figure 6A
Experimental: (§1) Figure 6 The un-tagged HEXIM1 BR peptide fails to enter cells by itself (A) MCF7 cells were cultured on glass slides overnight before incubation with the indicated FITC-labeled peptides (30 μM) for 30 min and subsequently analyzed by laser scanning confocal microscopy. Nuclei were visualized by DAPI. Cells treated with vehicle, DMSO (0.5%) were used as control. Representative fluorescent images are shown (bar, 10 μm). (B) The FITC-positive cells were quantified by flow cytometry. Data represent percentage of fluorescence-positive cells in total cell population. Results were summarized as mean ± SD of three independent experiments (***P < 0.0001, Student's t test).
To determine the ability of FITC-labeled peptides to enter the cells and to visualize intracellular distribution of the peptides, MCF7 cells were plated on 4-chamber glass cover slides (Lab-Tek) to adhere overnight, incubated with FITC-labeled peptides (30 μM) for 30 min, and then washed three times with PBS before being fixed and mounted with DAPI-containing mounting solution (Vectashield). Images were acquired using a Nikon A1R confocal laser scanning microscope equipped with a 60 × oil-immersion objective lens (SBIC-Nikon Imaging Centre).

MCF7 cells [2] = assay: Internalized fluorescent peptide by flow cytometry; conditions: MCF7, FITC-labeled peptides 30 μM, 30 min at 37°C, washed, trypsinized, mean of three independent experiments, Figure 6B
Experimental: as §1
MCF7 cells were plated on 6-cm culture dish to allow overnight adherence. FITC-labeled peptides (30 μM) were added to the cells, incubated for 30 min at 37°C, and subsequently washed three times with PBS. The cells were then trypsinized, collected by centrifugation, and finally resuspended in 500 μl ice-cold 2% FBS-containing PBS for flow cytometry analysis.

MCF7 cells [3] = assay: Cell viability (CellTiter-Glo); conditions: MCF7, different concentrations overnight, Figure 5A, 5C
Experimental: (§2) Cells were plated in clear-bottomed white walled 96-well plates (Corning) and incubated overnight. Cells were treated with indicated peptides in 1% FBS-containing media for overnight or indicated timings at 37°C. Cell viability was measured with CellTiter-Glo reagent (Promega) according to the manufacturer's instructions. For cytotoxicity assay, cells were plated in black walled 96-well plates (Corning) to allow them to adhere overnight. Upon treatment with a pan-caspase inhibitor, z-VAD-Fmk (100 μM) (Sigma) and subsequent treatment with LTV-tagged peptides, cytotoxicity induced was determined by CellTox cytotoxicity assay (Promega) 30 minutes after addition of peptides according to the manufacturer's instructions. Luminescence was determined using an Infinite 200 multiplate reader (Tecan).

MDA-MB-231 cells = assay: Cell viability (CellTiter-Glo); conditions: MDA-MB-231, different concentrations overnight, Figure 5B, 5D, S2
Experimental: as §2

BR-FITC: fluorescent-labeled (FITC) BR peptide (QLGKKKHRRRPSKKKRHW; also: FITC label; UniProt O94992 147-164, looked up, fragment)
internalization and intracellular distribution of fluorescent-labeled peptide (MCF7 cells [1]): no fluorescent signal was observed | percentage of fluorescence-positive cells in total cell population (internalized fluorescent peptide) (MCF7 cells [2]): no entry

BR: untagged peptide from the basic region of HEXIM1 containing the HDM2 ubiquitination residues (a.a. 147–164) (QLGKKKHRRRPSKKKRHW; UniProt O94992 147-164, looked up, fragment)
cell viability (MCF7 cells [3]): had no effect on cell viability | cell viability (MDA-MB-231 cells): had no effect on cell viability; also recorded: remained highly viable
